Measurements reported in the supplement of paper PMC7877785.
± gives the uncertainty stated by the source.

Assay: self-splicing fitness, log relative to wild type (ln ratio); higher = more splicing; Tetrahymena group I intron in knt gene, E. coli kanamycin selection, DiMSum; sequences stand for … in CUCUCU…GGAGGGAAAAGUUAUCAGGCAUGCACCUGGUAGCUAGUCUUUAAACCAAUAGAUUGCAUCGGUUUAAAAGGCAAGACCGUCAAAUUGCGGGAAAGGGGUCAACAGCCGUUCAGUACCAAGUCUCAGGGGAAACUUUGAGAUGGCCUUGCAAAGGGUAUGGUAAUAAGCUGACGGACAUGGUCCUAACCACGCAGCCAAGUCCUAAGUCAACAGAUCUUCUGUUGAUAUGGAUGCAGUUCACAGACUAAAUGUCGGUCGGGGAAGAUGUAUUCUUCUCAUAAGAUAUAGUCGGACCUCUCCUUAAUGGGAGCUAGCGGAUGAAGUGAUGCAACACUGGAGCCGCUGGGAACUAAUUUGUAUGCGAAAGUAUAUUGAUUAGUUUUGGAGUACUCGUGGUCG
How it was run: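 A randomised library covering all eight P1ex-region intron nucleotides was built with the intron in the knt kanamycin-resistance gene on pET-22b(+) and held in E. coli BL21(DE3). Cells were grown overnight at 37°C or 30°C on LB agar, with or without 25 μg/mL kanamycin, plus 100 μg/mL carbenicillin, 50 μM IPTG and 0.2% rhamnose, and pooled colonies were amplicon-sequenced on an Illumina HiSeq 2500. DiMSum fitness is the error-weighted combination of wild-type-normalised replicate fold changes, kanamycin versus none.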

Sequence | self-splicing fitness (ln) (30 °C) | self-splicing fitness (ln) (37 °C)
GUGCAGCAAUAUUACGCAGC | -3.21 ± 0.34 | -1.3 ± 0.34
GUGCAGCAAUAUUACGCAUG | -3.11 ± 0.29 | -0.586 ± 0.16
GUGCAGCAAUAUUACGCCAC |  | -1.95 ± 0.47
GUGCAGCAAUAUUACGCUUU | -1.26 ± 0.066 | -0.18 ± 0.074
GUGCAGCAAUAUUACGGAGG | -3.96 ± 0.22 | -2.55 ± 0.25
GUGCAGCAAUAUUACGGCGA | -0.548 ± 0.064 | 0.119 ± 0.092
GUGCAGCAAUAUUACGGCGG | -1.98 ± 0.11 | -1.1 ± 0.13
GUGCAGCAAUAUUACGGUCA | -1.46 ± 0.12 | -1.16 ± 0.11
GUGCAGCAAUAUUACGGUCC | -0.146 ± 0.15 | 0.0655 ± 0.22
GUGCAGCAAUAUUACGGUGC | -1.91 ± 0.19 | -2.31 ± 0.28
GUGCAGCAAUAUUACGUCAU | -2.23 ± 0.089 | -1.95 ± 0.1
GUGCAGCAAUAUUACGUGAG | -0.173 ± 0.054 | -0.117 ± 0.084
GUGCAGCAAUAUUACGUGUA | -2.77 ± 0.16 | -1.31 ± 0.11
GUGCAGCAAUAUUACGUUAU | -1.84 ± 0.084 | -0.973 ± 0.098
GUGCAGCAAUAUUACGUUCU | -1.1 ± 0.1 | 0.673 ± 0.097
GUGGAGCAAUAUUACGACUA |  | -0.509 ± 0.37
GUGGAGCAAUAUUACGCCAA | -2.82 ± 0.33 | -0.536 ± 0.33
GUGGAGCAAUAUUACGCGAU | -2.82 ± 0.32 | -2.31 ± 0.39
GUGGAGCAAUAUUACGCGGG | -2.34 ± 0.36 | -2.06 ± 0.47
GUGGAGCAAUAUUACGGCAU | -2.46 ± 0.13 | -2.62 ± 0.17
GUGGAGCAAUAUUACGGCUA | -1.06 ± 0.48 | -0.218 ± 0.35
GUGGAGCAAUAUUACGGUCA | -2.12 ± 0.17 | -1.23 ± 0.13
GUGGAGCAAUAUUACGUAGA | -2.11 ± 0.45 | -1.16 ± 0.23
GUGGAGCAAUAUUACGUGUG | -2.65 ± 0.21 | -2.65 ± 0.23
GUGGAGCAAUAUUACGUUUU | -3.35 ± 0.28 | -2.48 ± 0.48

Sequence | self-splicing fitness (ln) (30 °C) | self-splicing fitness (ln) (37 °C)
GUGUAGCAAUAUUACGACAC | -2.68 ± 0.18 | -2.17 ± 0.2
GUGUAGCAAUAUUACGAGUG | -2.83 ± 0.43 | 
GUGUAGCAAUAUUACGAUAU | -0.699 ± 0.17 | -0.881 ± 0.21
GUGUAGCAAUAUUACGCAAU | -2.06 ± 0.22 | -1.26 ± 0.18
GUGUAGCAAUAUUACGCGGA |  | -1.54 ± 0.36
GUGUAGCAAUAUUACGGACA | -0.685 ± 0.15 | -1.11 ± 0.18
GUGUAGCAAUAUUACGGUAA | -2.48 ± 0.14 | -1.49 ± 0.11
GUGUAGCAAUAUUACGUAAA | -2.96 ± 0.21 | -0.326 ± 0.15
GUGUAGCAAUAUUACGUAAU | -1.75 ± 0.12 | -0.371 ± 0.12
GUGUAGCAAUAUUACGUAUC | -1.01 ± 0.29 | 
GUGUAGCAAUAUUACGUCAG | -3.06 ± 0.26 | -2.53 ± 0.29
GUGUAGCAAUAUUACGUGCG | -1.8 ± 0.18 | -0.374 ± 0.19
GUGUAGCAAUAUUACGUGUC | -2.67 ± 0.21 | -0.104 ± 0.12
GUGUAGCAAUAUUACGUUAU | -2.81 ± 0.16 | -2.41 ± 0.2
GUUAAGCAAUAUUACGAAAC | -3 ± 0.48 | -2.83 ± 0.48
GUUAAGCAAUAUUACGAAGU | -2.06 ± 0.18 | -1.45 ± 0.23
GUUAAGCAAUAUUACGAGAC |  | -0.662 ± 0.25
GUUAAGCAAUAUUACGAGGG | -3.99 ± 0.21 | -3.08 ± 0.25
GUUAAGCAAUAUUACGAGUA | -2.5 ± 0.12 | -1.32 ± 0.095
GUUAAGCAAUAUUACGAUCA | -0.949 ± 0.23 | -0.245 ± 0.2
GUUAAGCAAUAUUACGAUCU | -0.419 ± 0.087 | -0.373 ± 0.11
GUUAAGCAAUAUUACGCACU | -0.8 ± 0.22 | -1.17 ± 0.23
GUUAAGCAAUAUUACGCAGA | -2.33 ± 0.14 | -2.85 ± 0.14
GUUAAGCAAUAUUACGCCUU | -0.286 ± 0.071 | 0.261 ± 0.096
GUUAAGCAAUAUUACGCGAC | -3.02 ± 0.21 | -2.15 ± 0.22

Sequence | self-splicing fitness (ln) (30 °C) | self-splicing fitness (ln) (37 °C)
GUUAAGCAAUAUUACGCGAU | -3.1 ± 0.21 | -2.65 ± 0.29
GUUAAGCAAUAUUACGCGUA | -1.2 ± 0.17 | -0.453 ± 0.25
GUUAAGCAAUAUUACGCUUC |  | -1.01 ± 0.49
GUUAAGCAAUAUUACGGAAA | -1.77 ± 0.26 | -1.06 ± 0.27
GUUAAGCAAUAUUACGGACA | -0.907 ± 0.21 | -1.18 ± 0.21
GUUAAGCAAUAUUACGGAGC | -3.58 ± 0.33 | -2.55 ± 0.27
GUUAAGCAAUAUUACGGAUG | -3.1 ± 0.28 | -0.786 ± 0.16
GUUAAGCAAUAUUACGGAUU | -2.21 ± 0.12 | -0.713 ± 0.14
GUUAAGCAAUAUUACGGCUG | -0.765 ± 0.11 | -0.135 ± 0.13
GUUAAGCAAUAUUACGGGAA | -1.87 ± 0.34 | -1.86 ± 0.29
GUUAAGCAAUAUUACGGUUC | -1.6 ± 0.081 | -0.156 ± 0.12
GUUAAGCAAUAUUACGGUUG | -3.12 ± 0.28 | -1.22 ± 0.24
GUUAAGCAAUAUUACGUACC | -0.386 ± 0.29 | 
GUUAAGCAAUAUUACGUAGA | -3.06 ± 0.16 | -0.537 ± 0.12
GUUAAGCAAUAUUACGUUUA | -2.74 ± 0.15 | -1.61 ± 0.11
GUUCAGCAAUAUUACGAUGG | -3.81 ± 0.29 | -2.31 ± 0.25
GUUCAGCAAUAUUACGAUGU | -0.419 ± 0.075 | 0.31 ± 0.11
GUUCAGCAAUAUUACGCCAU | -2.66 ± 0.21 | -1.99 ± 0.14
GUUCAGCAAUAUUACGCCGA | -2.43 ± 0.31 | -1.34 ± 0.29
GUUCAGCAAUAUUACGCCGG | -2.55 ± 0.21 | -0.806 ± 0.28
GUUCAGCAAUAUUACGCGCC | -1.96 ± 0.31 | -1.43 ± 0.34
GUUCAGCAAUAUUACGCGUU | -0.588 ± 0.062 | 0.431 ± 0.067
GUUCAGCAAUAUUACGCUAU | -1.32 ± 0.081 | -0.451 ± 0.092
GUUCAGCAAUAUUACGCUGA | -2.16 ± 0.24 | -2.43 ± 0.31
GUUCAGCAAUAUUACGGCCA | -0.626 ± 0.12 | -0.426 ± 0.15

Sequence | self-splicing fitness (ln) (30 °C) | self-splicing fitness (ln) (37 °C)
GUUCAGCAAUAUUACGGCGA | -1.16 ± 0.19 | 0.354 ± 0.18
GUUCAGCAAUAUUACGGUAA | -1.21 ± 0.07 | -0.563 ± 0.07
GUUCAGCAAUAUUACGUACA | -1.13 ± 0.11 | -0.94 ± 0.11
GUUCAGCAAUAUUACGUGCU |  | -2.98 ± 0.28
GUUCAGCAAUAUUACGUGGA | -3.5 ± 0.41 | -1.42 ± 0.2
GUUCAGCAAUAUUACGUGGG | -2.07 ± 0.13 | -1.92 ± 0.15
GUUCAGCAAUAUUACGUUCC | -2.79 ± 0.29 | -1.78 ± 0.41
GUUCAGCAAUAUUACGUUUG | -2.75 ± 0.15 | -1.22 ± 0.14
GUUGAGCAAUAUUACGACCU | -2.63 ± 0.16 | -1.56 ± 0.17
GUUGAGCAAUAUUACGACGA | -3.3 ± 0.32 | -2.2 ± 0.27
GUUGAGCAAUAUUACGACGC | -1.95 ± 0.22 | 1.05 ± 0.26
GUUGAGCAAUAUUACGACUG | -2.97 ± 0.32 | 0.138 ± 0.22
GUUGAGCAAUAUUACGCACC | -2.94 ± 0.16 | -1.67 ± 0.14
GUUGAGCAAUAUUACGGCGA | -2.81 ± 0.23 | -2.44 ± 0.2
GUUGAGCAAUAUUACGGGCA | -3.29 ± 0.23 | -0.813 ± 0.16
GUUGAGCAAUAUUACGGGUG | -3.62 ± 0.38 | -2.85 ± 0.47
GUUGAGCAAUAUUACGGUUG | -3.56 ± 0.35 | -1.38 ± 0.38
GUUGAGCAAUAUUACGUAAG | -2.08 ± 0.18 | -1.17 ± 0.19
GUUGAGCAAUAUUACGUCGU | -3.25 ± 0.39 | 
GUUGAGCAAUAUUACGUGAA |  | -1.76 ± 0.22
GUUGAGCAAUAUUACGUGCC | -3.02 ± 0.45 | 
GUUGAGCAAUAUUACGUGUU | -3.15 ± 0.25 | -2.29 ± 0.3
GUUGAGCAAUAUUACGUUAC | -2.2 ± 0.13 | -2.21 ± 0.24
GUUUAGCAAUAUUACGAAUC |  | -0.202 ± 0.45
